From the supplement of paper PMC7877785
± gives the uncertainty stated by the source.

Experiment: self-splicing fitness, log relative to wild type (ln ratio); higher = more splicing; Tetrahymena group I intron in knt gene, E. coli kanamycin selection, DiMSum; sequences stand for … in CUCUCU…GGAGGGAAAAGUUAUCAGGCAUGCACCUGGUAGCUAGUCUUUAAACCAAUAGAUUGCAUCGGUUUAAAAGGCAAGACCGUCAAAUUGCGGGAAAGGGGUCAACAGCCGUUCAGUACCAAGUCUCAGGGGAAACUUUGAGAUGGCCUUGCAAAGGGUAUGGUAAUAAGCUGACGGACAUGGUCCUAACCACGCAGCCAAGUCCUAAGUCAACAGAUCUUCUGUUGAUAUGGAUGCAGUUCACAGACUAAAUGUCGGUCGGGGAAGAUGUAUUCUUCUCAUAAGAUAUAGUCGGACCUCUCCUUAAUGGGAGCUAGCGGAUGAAGUGAUGCAACACUGGAGCCGCUGGGAACUAAUUUGUAUGCGAAAGUAUAUUGAUUAGUUUUGGAGUACUCGUGGUCG
How it was run: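 A randomised library covering all eight P1ex-region intron nucleotides was built with the intron in the knt kanamycin-resistance gene on pET-22b(+) and held in E. coli BL21(DE3). Cells were grown overnight at 37°C or 30°C on LB agar, with or without 25 μg/mL kanamycin, plus 100 μg/mL carbenicillin, 50 μM IPTG and 0.2% rhamnose, and pooled colonies were amplicon-sequenced on an Illumina HiSeq 2500. DiMSum fitness is the error-weighted combination of wild-type-normalised replicate fold changes, kanamycin versus none.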

Sequence	self-splicing fitness (ln) (30 °C)	self-splicing fitness (ln) (37 °C)
CUCCAGCAAUAUUACGUAAG	-0.512 ± 0.053	0.0902 ± 0.076
CUCCAGCAAUAUUACGUAUG	-2.03 ± 0.077	-1.8 ± 0.087
CUCCAGCAAUAUUACGUGAA	-1.24 ± 0.065	-0.328 ± 0.09
CUCCAGCAAUAUUACGUGCG	-3.63 ± 0.27	-1.84 ± 0.18
CUCCAGCAAUAUUACGUGUU	-3.62 ± 0.13	-2.31 ± 0.11
CUCCAGCAAUAUUACGUUGA	-2.56 ± 0.18	-2.87 ± 0.19
CUCCAGCAAUAUUACGUUUC	-3.65 ± 0.28	-3.12 ± 0.3
CUCGAGCAAUAUUACGACUU	-3.19 ± 0.19	-1.73 ± 0.23
CUCGAGCAAUAUUACGAGAG	-1.71 ± 0.28	–
CUCGAGCAAUAUUACGAUGU	–	-2.06 ± 0.3
CUCGAGCAAUAUUACGCACC	–	-2.08 ± 0.32
CUCGAGCAAUAUUACGCCAU	-2.93 ± 0.48	-1.94 ± 0.35
CUCGAGCAAUAUUACGCUCG	-2.72 ± 0.42	–
CUCGAGCAAUAUUACGGACA	-2.98 ± 0.33	-1.35 ± 0.29
CUCGAGCAAUAUUACGGGCU	-3.17 ± 0.23	-3.24 ± 0.42
CUCGAGCAAUAUUACGGGGA	-2.71 ± 0.2	-1.17 ± 0.18
CUCGAGCAAUAUUACGGGUA	-4.2 ± 0.39	-1.81 ± 0.16
CUCGAGCAAUAUUACGGUAA	-3.49 ± 0.25	-1.88 ± 0.24
CUCGAGCAAUAUUACGGUCG	-3.59 ± 0.28	-2.38 ± 0.34
CUCGAGCAAUAUUACGGUUC	-3.14 ± 0.22	-2.49 ± 0.3
CUCGAGCAAUAUUACGUAUG	-2.93 ± 0.14	-1.2 ± 0.13
CUCGAGCAAUAUUACGUCUU	-4.4 ± 0.21	-3.37 ± 0.21
CUCGAGCAAUAUUACGUGUU	-2.06 ± 0.16	-1.97 ± 0.19
CUCUAGCAAUAUUACGAACU	–	-4.2 ± 0.42
CUCUAGCAAUAUUACGAUUA	-3.01 ± 0.29	-2.85 ± 0.25

Sequence	self-splicing fitness (ln) (30 °C)	self-splicing fitness (ln) (37 °C)
CUCUAGCAAUAUUACGAUUU	-3.27 ± 0.19	-3.01 ± 0.3
CUCUAGCAAUAUUACGCAAG	-3.98 ± 0.27	-1.95 ± 0.2
CUCUAGCAAUAUUACGCAUU	-4.34 ± 0.39	-4 ± 0.39
CUCUAGCAAUAUUACGCGCG	-3.15 ± 0.27	-2.86 ± 0.28
CUCUAGCAAUAUUACGGAAA	-3.74 ± 0.3	-3.54 ± 0.23
CUCUAGCAAUAUUACGGAAC	-2.81 ± 0.47	–
CUCUAGCAAUAUUACGGAUC	-3.4 ± 0.21	-3.33 ± 0.33
CUCUAGCAAUAUUACGGAUG	-1.32 ± 0.092	-0.418 ± 0.13
CUCUAGCAAUAUUACGGAUU	-3.5 ± 0.21	-2.75 ± 0.18
CUCUAGCAAUAUUACGGCCG	-2.41 ± 0.22	-2.2 ± 0.23
CUCUAGCAAUAUUACGGCUA	-2.32 ± 0.26	-1.28 ± 0.24
CUCUAGCAAUAUUACGGGGC	-2.81 ± 0.27	-2.64 ± 0.41
CUCUAGCAAUAUUACGGGGU	-3.87 ± 0.25	-3.39 ± 0.32
CUCUAGCAAUAUUACGUAAC	-3.47 ± 0.29	–
CUCUAGCAAUAUUACGUAGA	-3.49 ± 0.27	-1.6 ± 0.17
CUCUAGCAAUAUUACGUAGG	-2.83 ± 0.18	-1.9 ± 0.22
CUCUAGCAAUAUUACGUUGU	-3.36 ± 0.2	-3.68 ± 0.31
CUGAAGCAAUAUUACGAACG	0.17 ± 0.13	0.661 ± 0.17
CUGAAGCAAUAUUACGAACU	-3.64 ± 0.19	-2.37 ± 0.23
CUGAAGCAAUAUUACGACAU	-0.393 ± 0.012	0.115 ± 0.033
CUGAAGCAAUAUUACGACCA	-4.88 ± 0.41	-1.22 ± 0.18
CUGAAGCAAUAUUACGACGA	-1.04 ± 0.097	-0.00885 ± 0.14
CUGAAGCAAUAUUACGAGUA	-3.67 ± 0.28	-2.63 ± 0.3
CUGAAGCAAUAUUACGAGUG	0.0379 ± 0.053	0.068 ± 0.084
CUGAAGCAAUAUUACGAUUG	0.168 ± 0.099	-0.000234 ± 0.12
